According to paper PMC5636753, “Structural basis for DAXX interaction with ATRX” (Protein & Cell, 2017):

B1: ATRX_(1,253–1,326) [not stated] / DAXX helical bundle (DHB) domain, DAXX_(55–144) [not stated] (parent complex)
chain 1: SVPVTVDDDDDDNDPENRIAKKMLLEEIKANLSSDEDGSSDDEPEEGKKRTGKQNEENPGDEEAKNQVNSESDS
chain 2: GKKCYKLENEKLFEEFLELCKMQTADHPEVVPFLYNRQQRAHSLFLASAEFCNILSRVLSRARSRPAKLYVYINELCTVLKAHSAKKKLN
B2: DAXX-binding motif of ATRX, ATRX_(1,260–1,289) [not stated] / DAXX helical bundle (DHB) domain, DAXX_(55–144) [not stated] (parent complex)
chain 1: DDDDDNDPENRIAKKMLLEEIKANLSSDED
chain 2: B1 chain 2

Variants of: B1
Assay: ITC

Row | Variant | Kd
1 | chain 1 I28R | 34.8 µM
2 | chain 1 I28A | 0.4 µM
3 | chain 1 L24A | 8.33 µM
4 | chain 1 L24Q | 43.3 µM

Results, then the variant that gave them:

Row | Kd | Variant
5 | 1.04 µM | chain 1 A20R
6 | 12 µM | chain 1 L24A, chain 1 I28A
7 | 0.97 µM | chain 1 L25R
8 | 7.35 µM | chain 1 I28Q
9 | 73.5 µM | chain 1 L24R

Variants of: B2
Assay: ITC

Row | Kd | Variant
10 | 1.75 µM | chain 1 D7A, chain 1 E9A
11 | 0.85 µM | chain 1 D1A, chain 1 D2A, chain 1 D3A, chain 1 D4A, chain 1 D5A
